Target: SARS-CoV-2 N protein C-terminal domain (NCTD) (SARS-CoV-2, UniProt P0DTC9 256-364)
Test: EMSA; […]; binding buffer not stated ([…]
Conditions: protein: recombinant; tags: N-terminal His6-TEV site (pET28a); chain copies: 2; label: 5' IRDye-800CW

CGGUUUCUCCG (ssRNA) [Oligo-U (SL5a G to U)]
Kd: 140 ± 29 nM
